Experimental data from article PMC6205632 (Nature structural & molecular biology, 2017).

Biological target: the molecule itself
Experiment: SEC

B1: MDM2 RING homodimer (MDM2 428-C), tag removed (domain or fragment)
chain: SSLPLNAIEPCVICQGRPKNGCIVHGKTGHLMACFTCAKKLKKRNKPCPVCRQPIQMIVLTYFP
B1: binds.
